Test results from US6759384 (AVENTIS PHARMACEUTICALS, dated 2004).
Read-outs that look alike come from different tables or passages of the source. Starred links: 1 amine or outer side, 2 acyl side, 3 side chain; linkers in the order of their positions; H or OH if unused. Non-standard residues stand in square brackets, D forms with d. No end group written: not given here. *: point of attachment. (iBu)Phe(4-NH2) = N-isobutyl-4-amino-L-phenylalanine, CC(C)CN([C@@H](Cc1ccc(N[*:3])cc1)C(=O)[*:2])[*:1]; (iBu)Phe(4-CN) = N-isobutyl-4-cyano-L-phenylalanine, CC(C)CN([C@@H](Cc1ccc(C#N)cc1)C(=O)[*:2])[*:1]; Phe(4-CONH2) = NC(=O)c1ccc(C[C@H](N)C(=O)O)cc1; 2‑pyridonyl = 2-pyridonyl N-terminal group; Phe(4-NH2) = Nc1ccc(C[C@H](N)C(=O)O)cc1; Chg = N[C@H](C(=O)O)C1CCCCC1; Nicotinoyl = O=C(c1cccnc1)*; Tfa = O=C(C(F)(F)F)*; Bz = O=C(c1ccccc1)*

Assays:
[1] = target: T1, human factor Xa (Enzyme Research Laboratories, Inc.) (human, UniProt P00742 41-179; P00742 235-488, limits assumed); experiment: chromogenic FXa inhibition
Summary of the method: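 Human FXa (0.5 nM) preincubated 10 min with inhibitor in TBS-P (pH 7.8, 200 mM NaCl, PEG-8000), then S-2765 added (140 μM). Initial hydrolysis rate read at 405 nm, 25° C.; IC50 by linear regression of relative rate vs log concentration.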

[2] = target: T1, human factor Xa (Enzyme Research …); experiment: chromogenic FXa inhibition; remark: listed apart in the source
Method: TBS-P buffer (50 mM Tris-Cl, pH 7.8, 200 mM NaCl, 0.05% (w/v) PEG-8000, 0.02% (w/v) NaN_3) was used for this assay. The IC$50$ was determined by combining in appropriate wells of a Costar half-area microtiter plate 25 μl human factor Xa (Enzyme Research Laboratories, Inc.; South Bend Ind.) in TBS-P; 40 μl 10% (v/v) DMSO in TBS-P (uninhibited control) or various concentrations of a peptide to be tested diluted in 10% (v/v) DMSO in TBS-P; and substrate S-2765 (Nα-benzyloxycarbonyl-D-Arg-Gly-L-Arg-p-nitroanilide; Kabi Pharmacia, Inc.; Franklin Ohio) in TBS-P.
The assays were performed by pre-incubating the peptide inhibitor plus enzyme for 10 min, then the assay was initiated by adding substrate to obtain a final volume of 100 μl. The initial velocity of chromogenic substrate hydrolysis was measured by the change in absorbance at 405 nm using a Bio-tek Instruments kinetic plate reader (Ceres UV900HDi) at 25° C. during the linear portion of the time course (usually 1–5 min after addition of substrate). The concentration of inhibitor that caused a 50% decrease in the rate of substrate hydrolysis was predicted by linear regression after plotting the relative rates of hydrolysis (compared to the uninhibited control) versus the log of the peptide concentration. The enzyme concentration was 0.5 nM and substrate concentration was 140 μM.

T1 sequence (P00742 41-179 limits assumed, chain 1 of 2): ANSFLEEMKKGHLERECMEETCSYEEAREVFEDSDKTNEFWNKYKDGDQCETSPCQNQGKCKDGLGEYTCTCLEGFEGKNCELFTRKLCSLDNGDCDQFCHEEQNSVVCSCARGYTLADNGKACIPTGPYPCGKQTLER
T1 sequence (P00742 235-488 limits assumed, chain 2 of 2): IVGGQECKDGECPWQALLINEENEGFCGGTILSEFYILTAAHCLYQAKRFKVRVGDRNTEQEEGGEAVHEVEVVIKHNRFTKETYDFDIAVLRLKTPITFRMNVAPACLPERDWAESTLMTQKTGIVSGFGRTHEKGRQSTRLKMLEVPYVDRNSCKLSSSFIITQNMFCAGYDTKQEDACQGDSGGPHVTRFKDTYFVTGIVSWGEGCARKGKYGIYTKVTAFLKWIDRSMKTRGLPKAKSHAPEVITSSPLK

Binder | Ki [1] [µM] | Ki [2] [µM]
XIRLP (N-term Ac; N-(Et-CH═C(CH3)-CH2) on Y1; C-term NH2) [Ac-(Et-CH═C(CH3)-CH2)Y-I-R-L-P-NH2] | < 100 | 
Nicotinoyl-[Phe(4-NH2)][Chg]RLP-NH2 (SMILES CC(C)C[C@H](NC(=O)[C@H](CCCNC(=N)N)NC(=O)[C@@H](NC(=O)[C@H](Cc1ccc(N)cc1)NC(=O)c1cccnc1)C1CCCCC1)C(=O)N1CCC[C@H]1C(N)=O) [(3-pyridoyl)-Phe(pNH2)-Chg-Arg-Leu-Pro-NH2] |  | < 100
Bz-[Phe(4-NH2)][Chg]RLP-NH2 (SMILES CC(C)C[C@H](NC(=O)[C@H](CCCNC(=N)N)NC(=O)[C@@H](NC(=O)[C@H](Cc1ccc(N)cc1)NC(=O)c1ccccc1)C1CCCCC1)C(=O)N1CCC[C@H]1C(N)=O, also called Bz-F(pNH2)-Chg-R-L-P-NH2) [(Benzoyl)-Phe(pNH2)-Chg-Arg-Leu-Pro-NH2] |  | < 100
XIRLP (N-term Ac; N-(2-Me-nBu) on Y1; Y1=Y(SO3H); C-term NH2) [Ac-(2-Me-nBu)Y(SO3H)-I-R-L-P-NH2] | < 100 | 
Ac-[(iBu)Phe(4-CN)][Chg]RLP-NH2 [Ac-(iBu)Phe(pCN)-Chg-Arg-Leu-Pro-NH2] |  | < 100
{2‑naphthylsulfonyl}-[Phe(4-NH2)][Chg]RLP-NH2 [(2-naphthylsulfonyl)-Phe(pNH2)-Chg-Arg-Leu-Pro-NH2] |  | < 100
XIRLP (N-term Ac; N-(3,3-DiMe-nBu) on Y1; Y1=Y(SO3H); C-term NH2) [Ac-(3,3-DiMe-nBu)Y(SO3H)-I-R-L-P-NH2] | < 100 | 
XIRLP (N-term Ac; N-(3,5,5-Me-3-nHexyl) on Y1; C-term NH2) [Ac-(3,5,5-Me-3-nHexyl)Y-I-R-L-P-NH2] | < 100 | 
XIRLP (N-term Ac; N-(Et-CH═C(CH3)-CH2) on Y1; Y1=Y(SO3H); C-term NH2) [Ac-(Et-CH═C(CH3)-CH2)Y(SO3H)-I-R-L-P-NH2] | < 100 | 
{2‑methylbenzyl}-[Phe(4-NH2)][Chg]RLP-NH2 [(2-methylbenzyl)-Phe(pNH2)-Chg-Arg-Leu-Pro-NH2] |  | < 100
XIRLP (N-term Ac; N-(2-Me-nPentyl) on Y1; C-term NH2, also called Ac-(CH3CH2CH2CH(CH3)CH2)-Y-I-R-L-P-NH2) [Ac-(2-Me-nPentyl)Y-I-R-L-P-NH2] | < 100 | < 100
XIRLP (N-term Ac; N-(3,3-DiMe-nBu) on Y1; C-term NH2) [Ac-(3,3-DiMe-nBu)Y-I-R-L-P-NH2] | < 100 | 
{2‑pyridonyl}-[Phe(4-NH2)][Chg]RLP-NH2 [(2-pyridonyl)Phe(pNH2)Chg-Arg-Leu-Pro-NH2] |  | < 100
Ac-[(iBu)Phe(4-NH2)][Chg]RLP-NH2 (also called Ac-(iBu)-Phe(pNH2)-Chg-Arg-Leu-Pro-NH2) [Ac-(iBu)F(pNH2)-Chg-R-L-P-NH2] | < 100 | < 100
XIRLP (N-term Ac; N-(2-Me-nPentyl) on Y1; Y1=Y(SO3H); C-term NH2) [Ac-(2-Me-nPentyl)Y(SO3H)-I-R-L-P-NH2] | < 100 | 
XIRLP (N-term Ac; N-(2-Me-Bzl) on Y1; Y1=Y(SO3H); C-term NH2) [Ac-(2-Me-Bzl)Y(SO3H)-I-R-L-P-NH2] | < 100 | 
XIRLP (N-term Ac; N-(Cyclopropyl-CH2) on Y1; C-term NH2) [Ac-(Cyclopropyl-CH2)Y-I-R-L-P-NH2] | < 100 | 
Ac-[Phe(4-CONH2)][Chg]RLP-NH2 (SMILES CC(=O)N[C@@H](Cc1ccc(C(N)=O)cc1)C(=O)N[C@H](C(=O)N[C@@H](CCCNC(=N)N)C(=O)N[C@@H](CC(C)C)C(=O)N1CCC[C@H]1C(N)=O)C1CCCCC1, also called Ac-Phe(pCONH2)-Chg-R-L-P-NH2; Ac-Phe(p-CONH2)-Chg-Arg-Leu-Pro-NH2) [Ac-F(pCONH2)-Chg-R-L-P-NH2] | < 100 | < 100
[dY][Chg]RLP-NH2 (also called D-Tyr-Chg-Arg-Leu-Pro-NH2) [y-Chg-R-L-P-NH2] | < 100 | < 100
Tfa-Y[Chg]RLP-NH2 [Tfa-Y-Chg-R-L-P-NH2] | < 100 | < 100
